Results on three variants are retold here after IntAct's records for PubMed 21516122.

B1: Histone-lysine N-methyltransferase PRDM16 (Homo sapiens), Q9HAZ2-4 (parent)
chain: MCQISEQIYYKVIKDIEPGEELLVHVKEGVYPLGTVPPGLDEEPTFRCDECDELFQSKLDLRRHKKYTCGSVGAALYEGLAEELKPEGLGGGSGQAHECKDCERMFPNKYSLEQHMVIHTEEREYKCDQCPKAFNWKSNLIRHQMSHDSGKRFECENCVKVFTDPSNLQRHIRSQHVGARAHACPDCGKTFATSSGLKQHKHIHSTVKPFICEVCHKSYTQFSNLCRHKRMHADCRTQIKCKDCGQMFSTTSSLNKHRRFCEGKNHYTPGGIFAPGLPLTPSPMMDKAKPSPSLNHASLGFNEYFPSRPHPGSLPFSTAPPTFPALTPGFPGIFPPSLYPRPPLLPPTSLLKSPLNHTQDAKLPSPLGNPALPLVSAVSNSSQGTTAAAGPEEKFESRLEDSCVEKLKTRSSDMSDGSDFEDVNTTTGTDLDTTTGTGSDLDSDVDSDPDKDKGKGKSAEGQPKFGGGLAPPGAPNSVAEVPVFYSQHSFFPPPDEQLLTATGAAGDSIKAIASIAEKYFGPGFMGMQEKKLGSLPYHSAFPFQFLPNFPHSLYPFTDRALAHNLLVKAEPKSPRDALKVGGPSAECPFDLTTKPKDVKPILPMPKGPSAPASGEEQPLDLSIGSRARASQNGGGREPRKNHVYGERKLGAGEGLPQVCPARMPQQPPLHYAKPSPFFMDPIYSRVEKRKVTDPVGALKEKYLRPSPLLFHPQMSAIETMTEKLESFAAMKADSGSSLQPLPHHPFNFRSPPPTLSDPILRKGKERYTCRYCGKIFPRSANLTRHLRTHTGEQPYRCKYCDRSFSISSNLQRHVRNIHNKEKPFKCHLCNRCFGQQTNLDRHLKKHEHENAPVSQHPGVLTNHLGTSASSPTSESDNHALLDEKEDSYFSEIRNFIANSEMNQASTRTEKRADMQIVDGSAQCPGLASEKQEDVEEEDDDDLEEDDEDSLAGKSQDDTVSPAPEPQAAYEDEEDEEPAASLAVGFDHTRRCAEDHEGGLLALEPMPTFGKGLDLRRAAEEAFEVKDVLNSTLDSEALKHTLCRQAKNQAYAMMLSLSEDTPLHTPSQGSLDAWLKVTGATSESGAFHPINHL

The variants in assay [1] derive from B1. Particulars: with hdac2_chick HDAC2, P56519.
In assay [2] the parent is B1. Particulars: with ctbp2_mouse Ctbp2, P56546.
Variants of B1 are the subject of assay [3]. Particulars: with ctbp2_mouse Ctbp2, P56546. This is another data set of the same source.

Chain of hdac2_chick HDAC2, P56519 (P56519 whole entry): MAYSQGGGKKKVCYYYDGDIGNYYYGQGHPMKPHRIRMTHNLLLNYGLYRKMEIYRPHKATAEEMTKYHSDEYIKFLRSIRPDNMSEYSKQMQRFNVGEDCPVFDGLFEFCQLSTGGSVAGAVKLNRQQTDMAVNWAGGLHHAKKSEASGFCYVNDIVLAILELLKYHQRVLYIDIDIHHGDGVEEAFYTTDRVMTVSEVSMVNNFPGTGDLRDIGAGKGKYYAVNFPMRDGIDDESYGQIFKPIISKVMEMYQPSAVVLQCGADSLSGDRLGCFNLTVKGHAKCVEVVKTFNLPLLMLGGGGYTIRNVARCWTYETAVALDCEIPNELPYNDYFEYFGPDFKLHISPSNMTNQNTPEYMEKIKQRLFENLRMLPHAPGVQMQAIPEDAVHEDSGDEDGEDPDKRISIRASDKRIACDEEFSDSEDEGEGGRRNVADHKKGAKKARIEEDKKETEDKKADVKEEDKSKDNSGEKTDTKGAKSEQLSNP
Chain of ctbp2_mouse Ctbp2, P56546 (P56546 whole entry): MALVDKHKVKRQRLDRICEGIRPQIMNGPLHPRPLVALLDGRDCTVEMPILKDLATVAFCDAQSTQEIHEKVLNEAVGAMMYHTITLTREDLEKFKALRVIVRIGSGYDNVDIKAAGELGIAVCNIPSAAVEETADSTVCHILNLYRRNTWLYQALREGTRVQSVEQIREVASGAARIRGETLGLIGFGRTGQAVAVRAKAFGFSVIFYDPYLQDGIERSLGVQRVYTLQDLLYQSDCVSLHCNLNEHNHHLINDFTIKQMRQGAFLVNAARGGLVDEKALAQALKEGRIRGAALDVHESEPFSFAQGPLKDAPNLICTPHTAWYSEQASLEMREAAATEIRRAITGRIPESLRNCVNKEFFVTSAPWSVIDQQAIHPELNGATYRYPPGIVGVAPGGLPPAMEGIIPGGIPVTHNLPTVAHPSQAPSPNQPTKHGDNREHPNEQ

Consider K568R;D590A;L591S;L619S;D620A, for which, in assay [1], the “effect of a mutation on the interaction” value is “decreasing interaction”.
As to D590A;L591S;D620A;L621S, the results for the “effect of a mutation on the interaction” value in assay [2], in assay [3] and in assay [1] were “disrupting interaction”, “disrupting interaction” and “decreasing interaction”, respectively.
Take K568R: in assay [1], the “effect of a mutation on the interaction” value is “decreasing interaction”.
